According to patent publication US20260055369A1, “METHOD FOR GENERATING CELLS OF THE T CELL LINEAGE WITH ENGINEERING BROADLY REACTIVE HUMAN NOTCH LIGAND” (H. Lee Moffitt Cancer Center and Research Institute, Inc., priority 2022, published 2026):
Read-outs that look alike come from different tables or passages of the source.

B1: Delta^MAX: engineered human DLL4 consensus variant with 10 mutations combining DLL4.v1 and DLL4.v2 mutations; sequence matches SEQ ID NO: 4/10 (protein)
chain: SSVFQLQLQEFINERGVLASGRPCEPGCRTFFRVCLKHFQAVVSPGPCTFGTVSTPVLGTNSFAVRDDSSGGGRNPLQLPLNFTWPGTFSLIIEAWHAPGDDLRPEALPPDALISKFAIQGSLAVGQNWLLDEQTSTLTRLRYSYRVICSDNYYGDNCSRLCKKRNDYFGHYVCQPDGNPSCLPGWTGEYCQQPICLSGCHEQNGYCSKPAECLCRPGWQGRLCNECIPHPGCRHGTCSTPWQCLCDEGWGGLYCDQDLNYCTHHSPCKNGATCRNSGPRSYTCTCRPGYTGVDCELELSECDSNPCRNGGSCKDQEDGYHCLCPPGYYGLHCEHSTLSCADSPCFNGGSCRERNQGANYACECPPNFTGSNCE
B2: WT DLL4: human wild-type Delta-like 4 (N-EGF5, residues 27-400), SEQ ID NO: 1 (protein)
chain: SGVFQLQLQEFINERGVLASGRPCEPGCRTFFRVCLKHFQAVVSPGPCTFGTVSTPVLGTNSFAVRDDSSGGGRNPLQLPFNFTWPGTFSLIIEAWHAPGDDLRPEALPPDALISKIAIQGSLAVGQNWLLDEQTSTLTRLRYSYRVICSDNYYGDNCSRLCKKRNDHFGHYVCQPDGNLSCLPGWTGEYCQQPICLSGCHEQNGYCSKPAECLCRPGWQGRLCNECIPHNGCRHGTCSTPWQCTCDEGWGGLFCDQDLNYCTHHSPCKNGATCSNSGQRSYTCTCRPGYTGVDCELELSECDSNPCRNGGSCKDQEDGYHCLCPPGYYGLHCEHSTLSCADSPCFNGGSCRERNQGANYACECPPNFTGSNCE

What was measured:
mouse Notch1 (EGF6-13) = target: T1, mouse Notch1 (EGF6-13) (Mus musculus, UniProt Q01705); assay: SPR determination of equilibrium dissociation constants; format: binding; settings: mNotch1 EGF6-13; read-out: dissociation constant (KD)
T1 construct: mouse Notch1 (EGF6-13, residues 221-526); gp67 signal peptide (N); made in house; host or cells: HiFive Trichoplusia ni insect cells (baculovirus)
T1 sequence (Q01705 221-526): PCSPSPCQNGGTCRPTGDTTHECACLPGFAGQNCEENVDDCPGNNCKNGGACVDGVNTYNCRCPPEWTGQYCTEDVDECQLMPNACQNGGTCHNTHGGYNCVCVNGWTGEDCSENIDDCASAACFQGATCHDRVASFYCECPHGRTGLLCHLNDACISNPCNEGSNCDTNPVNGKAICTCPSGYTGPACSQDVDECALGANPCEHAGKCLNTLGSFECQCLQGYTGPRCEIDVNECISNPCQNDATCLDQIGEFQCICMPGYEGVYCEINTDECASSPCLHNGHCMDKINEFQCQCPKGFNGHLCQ
Procedure: Equilibrium dissociation constants were determined by surface plasmon resonance using a Biacore T200 instrument (GE Healthcare). Approximately 100 resonance units (RU) of biotinylated Notch extracellular fragments (Notch1 (EGF6-13), Notch2 (EGF6-13), Notch3 (EGF5-12), Notch4 (7-12), and mouse Notch1 (EGF6-13)) were immobilized on individual flow cells at 5 μl/min using a streptavidin-coated sensor chip (Series S Sensor chip SA, GE Healthcare). Three-fold serial dilutions of recombinant DLL4 proteins (N-EGF5) starting at 50 μM (WT DLL4), 18 μM (DLL4.v2), and 6 μM (DLL4.v1 and Delta^MAX) were flowed over the chip at 25° C. in SPR buffer (20 mM HEPES pH 7.4, 150 mM NaCl, 1 mM calcium chloride, 0.1% BSA supplemented with 0.005% surfactant P20). Association (“on-rate”) and dissociation (“off-rate”) phases were performed at 10 μl/min for 120 seconds and 300 seconds, respectively. The sensor chip was regenerated after each injection with 30-second washes of 2.25M Magnesium Chloride containing 25% Ethylene Glycol at 50 μL/min. Data collection rate was performed at 10 Hz, and curves were reference-subtracted from a flow cell containing 100 RU of a negative control non-related protein (biotinylated mouse RNF43 PA domain). The maximum RU for each experiment was normalized to a value of 100% and plotted as a function of concentration using Prism 9 software (GraphPad). Steady-state binding and kinetic curves were fitted using the Biacore T200 evaluation software to a 1:1 Langmuir model to determine the KD values.

[1] = Thermal denaturation by differential scanning fluorimetry (DSF); format: physicochemical; settings: for melting temperature (Tm): N-EGF5, 5 μM in HBS
Procedure: WT DLL4 and Delta^MAX (N-EGF5) were diluted at 5 μM in 20 μL of HBS buffer, and then combined with 10 μM (5×) SYPRO Orange (ThermoFisher Scientific) prepared in 100% DMSO (final DMSO concentration was 0.1%). This mix was equilibrated at room temperature for 30 min. Proteins were analyzed in a 96-well microtiter plate using a StepOnePlus RT-PCR system (Applied Biosystems) applying a continuous heating gradient from 25 to 99° C. with a step of 1% of temperature/min. Data was normalized and represented as the mean of three independent technical replicates. Similar Tm values were obtained for the replica measurements.

Notch1 = assay: Notch inhibition assay with soluble antagonists and WT DLL4 coated plates (CHO-K1 N1-Gal4); format: cell-based
Chain of Notch1 (P46531 19-1664 limits assumed): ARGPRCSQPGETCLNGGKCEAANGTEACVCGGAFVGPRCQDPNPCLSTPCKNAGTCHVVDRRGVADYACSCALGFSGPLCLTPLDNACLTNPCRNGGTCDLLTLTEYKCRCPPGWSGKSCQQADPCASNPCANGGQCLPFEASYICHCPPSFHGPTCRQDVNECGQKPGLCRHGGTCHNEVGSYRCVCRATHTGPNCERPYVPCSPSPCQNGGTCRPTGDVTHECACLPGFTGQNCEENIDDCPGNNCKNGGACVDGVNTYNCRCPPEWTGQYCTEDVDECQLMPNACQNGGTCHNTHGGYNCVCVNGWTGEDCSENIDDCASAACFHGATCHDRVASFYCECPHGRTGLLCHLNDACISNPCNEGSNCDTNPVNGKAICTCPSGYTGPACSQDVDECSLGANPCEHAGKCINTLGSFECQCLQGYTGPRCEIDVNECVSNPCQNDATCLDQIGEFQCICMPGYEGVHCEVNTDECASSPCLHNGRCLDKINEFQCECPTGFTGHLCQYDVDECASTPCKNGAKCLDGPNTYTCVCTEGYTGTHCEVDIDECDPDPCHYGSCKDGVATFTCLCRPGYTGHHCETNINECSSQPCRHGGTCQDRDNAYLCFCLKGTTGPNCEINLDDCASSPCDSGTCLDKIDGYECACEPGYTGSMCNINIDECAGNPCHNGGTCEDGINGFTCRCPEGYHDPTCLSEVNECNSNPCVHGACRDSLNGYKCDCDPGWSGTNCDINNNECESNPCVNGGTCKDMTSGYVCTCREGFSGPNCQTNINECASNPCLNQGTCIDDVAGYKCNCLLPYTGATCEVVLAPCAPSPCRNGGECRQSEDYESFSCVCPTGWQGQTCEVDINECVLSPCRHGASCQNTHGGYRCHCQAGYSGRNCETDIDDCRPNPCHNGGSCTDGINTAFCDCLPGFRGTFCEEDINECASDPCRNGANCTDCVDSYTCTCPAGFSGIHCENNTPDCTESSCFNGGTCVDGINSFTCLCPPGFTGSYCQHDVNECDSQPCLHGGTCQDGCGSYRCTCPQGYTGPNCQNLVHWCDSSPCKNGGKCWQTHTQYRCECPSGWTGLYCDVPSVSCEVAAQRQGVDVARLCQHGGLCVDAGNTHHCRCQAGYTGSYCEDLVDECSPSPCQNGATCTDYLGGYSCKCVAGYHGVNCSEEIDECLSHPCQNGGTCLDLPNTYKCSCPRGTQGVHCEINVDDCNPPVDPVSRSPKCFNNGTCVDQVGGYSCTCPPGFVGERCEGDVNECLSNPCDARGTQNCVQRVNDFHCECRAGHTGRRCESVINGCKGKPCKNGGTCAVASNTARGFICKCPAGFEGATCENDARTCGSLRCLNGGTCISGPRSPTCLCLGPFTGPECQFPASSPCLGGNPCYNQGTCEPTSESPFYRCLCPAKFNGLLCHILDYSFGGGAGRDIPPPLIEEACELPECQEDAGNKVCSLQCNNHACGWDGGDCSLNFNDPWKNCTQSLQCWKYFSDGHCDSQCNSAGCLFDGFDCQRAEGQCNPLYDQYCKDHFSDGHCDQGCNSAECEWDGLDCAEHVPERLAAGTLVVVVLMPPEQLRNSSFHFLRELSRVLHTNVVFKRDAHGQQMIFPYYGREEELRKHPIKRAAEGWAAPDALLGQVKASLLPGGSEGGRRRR
Chain of Notch1 (P46531 1665-1756 limits assumed): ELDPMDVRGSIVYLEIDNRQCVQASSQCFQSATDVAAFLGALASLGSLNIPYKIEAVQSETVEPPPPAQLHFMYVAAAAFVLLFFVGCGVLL
Procedure: For CHO-K1 N1-Gal4 reporter cells, on day one, biotinylated WT DLL4 was pre-coated in 96-well plates at 50 nM following the same protocol described above. Next, CHO-K1 N1-Gal4 cells were detached with trypsin-EDTA, washed, and diluted at 200,000 cells/mL in α-MEM media. Ten-fold serial dilutions of non-biotinylated DLL4 ligands (N-EGF5) were prepared in DPBS starting at 600 nM. Next, soluble inhibitors were mixed in ratio 1:1 with CHO-K1 N1-Gal4 200,000 cells/mL stocks for 15 min at room temperature to pre-block Notch receptors. Two hundred microliters of inhibition reactions containing 20,000 reporter cells were added to WT DLL4-coated wells, and plates incubated for 24 hours at 37° C. and 5% CO2. When DAPT (gamma-secretase inhibitor, Sigma) and BB-94 (ADAM metalloprotease inhibitor, Sigma) were used, stock solutions were prepared at 100 μM in 8% DMSO. Appropriate DMSO controls were included to test Notch activation and cell viability. Final DMSO concentration in the experiment was kept below 1%. For comparisons of Delta^MAX with DAPT and BB-94, soluble inhibitors were serially diluted in DPBS using 9-folds, incubated with CHO-K1 N1-Gal4 reporter cells, and added to wells as described above. On day two, assay plates were washed with 200 μL of DPBS, CHO-K1 N1-Gal4 cells detached with trypsin-EDTA, quenched with 200 μL of α-MEM media, and Notch activation measured by flow cytometry (BD Accuri C6 Plus). The data represent the mean fluorescent intensity as percentage of Notch activation, relative to Notch activation in the absence of inhibitors±s.d. of three independent biological replicates.

Notch3 = assay: Notch inhibition assay in co-culture format (U2OS Notch3 reporter with HEK293T expressing DLL4, DLL1, JAG1 or JAG2); format: cell-based, human; settings: 3 μM soluble protein; signaling by DLL1, DLL4, JAG1 and JAG2 expressing HEK293T cells
Chain of Notch3 (Q9UM47 197-505 limits assumed): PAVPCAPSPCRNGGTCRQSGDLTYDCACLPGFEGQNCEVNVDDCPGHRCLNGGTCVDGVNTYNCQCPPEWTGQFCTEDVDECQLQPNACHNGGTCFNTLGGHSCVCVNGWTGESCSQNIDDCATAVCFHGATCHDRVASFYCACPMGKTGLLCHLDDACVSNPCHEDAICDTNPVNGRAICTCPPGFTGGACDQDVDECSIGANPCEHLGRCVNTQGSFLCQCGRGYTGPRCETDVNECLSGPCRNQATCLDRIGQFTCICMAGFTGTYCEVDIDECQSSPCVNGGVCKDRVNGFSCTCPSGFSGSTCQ
Procedure: For inhibition of Notch ligand-expressing cell lines, on day one, U2OS Notch3 reporter cells (signal receivers) were detached with trypsin-EDTA, washed with DPBS, and added to 6-well plates. On day two, U2OS cells were transfected as described above. On day three, signal receiver cells were detached with trypsin-EDTA, and dilutions of 400,000 cells/mL were prepared in DMEM. On the one hand, soluble DLL4 variants were prepared at 6,000 nM in DPBS, combined in 1:1 dilution with signal receiver cells, and incubated for 15 min at RT. On the other hand, HEK293T-expressing WT DLL4, DLL1, JAG1, JAG2 were detached with trypsin-EDTA, washed with DPBS and 200,000 cells/mL stocks prepared in DMEM. One hundred microliters of both signal senders and pre-blocked signal receivers were combined in cell ratio 1:1 and incubated for 24 hours at 37° C., and 5% CO2. On day four, luciferase firefly and Renilla signals were determined with Dual-Glo luciferase assay system (Promega) using a GloMax luminometer (Promega). Doxycycline at 2 μg/mL was kept for all the conditions. A luminescence ratio firefly:Renilla was determined for every well. Notch activation of each Notch3:ligand pair was normalized to the signal of Notch3 reporters in the presence of HEK293T lacking ligands. Each Notch signaling pair was set at 100% activation and soluble DLL4 treatments were relative to its corresponding pair. […]

| Molecule | Kd (mouse Notch1 (EGF6-13)) | increase in Tm relative to WT DLL4 (ΔTm) [1] | melting temperature (Tm) [1] | IC50 (Notch1; comparison with DAPT and BB-94, plates coated with 50 nM WT DLL4, FIG. 4B, read-out: IC50 for inhibition of Notch1 activation) | potency relative to BB-94 (Notch1; ratio of IC50) | potency relative to DAPT (Notch1; ratio of IC50) | IC50 (Notch1; soluble ECD, plates coated with 50 nM WT DLL4, 24 hours, FIG. 4A, read-out: IC50 for inhibition of Notch1 signaling) | reduction in reporter signal (Notch3) | reduction of reporter activity (Notch1; soluble, highest concentration tested (300 nM)) |
| --- | --- | --- | --- | --- | --- | --- | --- | --- | --- |
| B1 | 25 nM | 11 °C | 58 °C | 1 nM | 1,000 fold | 40 fold | 0.6 nM | 70-85% | – |
| B2 | – | – | 47 °C | – | – | – | – | 10-40% | ~25% |
